Laboratory results as given in publication PMC7959569.

Target: Med25 AcID, Med25(394-543)-His6 (UniProt Q71SY5)
Experiment: stopped-flow fluorescence transient kinetics

Chain of Med25 AcID, Med25(394-543)-His6 (Q71SY5 394-543): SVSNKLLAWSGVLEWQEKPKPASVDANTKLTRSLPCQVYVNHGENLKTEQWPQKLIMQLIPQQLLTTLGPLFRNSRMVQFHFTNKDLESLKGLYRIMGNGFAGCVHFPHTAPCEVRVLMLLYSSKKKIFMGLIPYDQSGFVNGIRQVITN

Row | Substance | fold gain in affinity against the parent TAD [fold]
1 | ETV1^∆Nt TAD with 4-DMN on the N terminus (from UniProt P50549 42-477) (peptide) | 1.7
2 | ETV4^∆Nt TAD with 4-DMN on the N terminus (from UniProt P43268 49-484) (peptide) | 1.7
